Test results from article PMC10784701.

Target: RedM, N,N-dimethyltransferase of the reductasporine biosynthetic pathway
Assay: SEC; size-exclusion chromatography of purified RedM in solution (Fig. S3); conditions of this run not shown

RedM, N,N-dimethyltransferase of the reductasporine biosynthetic pathway (enzyme)
stoichiometry N: 2
